In the assay the target is T1, CD11a (human (endogenous in NK92-CD16)) (UniProt P20701).
T1 sequence: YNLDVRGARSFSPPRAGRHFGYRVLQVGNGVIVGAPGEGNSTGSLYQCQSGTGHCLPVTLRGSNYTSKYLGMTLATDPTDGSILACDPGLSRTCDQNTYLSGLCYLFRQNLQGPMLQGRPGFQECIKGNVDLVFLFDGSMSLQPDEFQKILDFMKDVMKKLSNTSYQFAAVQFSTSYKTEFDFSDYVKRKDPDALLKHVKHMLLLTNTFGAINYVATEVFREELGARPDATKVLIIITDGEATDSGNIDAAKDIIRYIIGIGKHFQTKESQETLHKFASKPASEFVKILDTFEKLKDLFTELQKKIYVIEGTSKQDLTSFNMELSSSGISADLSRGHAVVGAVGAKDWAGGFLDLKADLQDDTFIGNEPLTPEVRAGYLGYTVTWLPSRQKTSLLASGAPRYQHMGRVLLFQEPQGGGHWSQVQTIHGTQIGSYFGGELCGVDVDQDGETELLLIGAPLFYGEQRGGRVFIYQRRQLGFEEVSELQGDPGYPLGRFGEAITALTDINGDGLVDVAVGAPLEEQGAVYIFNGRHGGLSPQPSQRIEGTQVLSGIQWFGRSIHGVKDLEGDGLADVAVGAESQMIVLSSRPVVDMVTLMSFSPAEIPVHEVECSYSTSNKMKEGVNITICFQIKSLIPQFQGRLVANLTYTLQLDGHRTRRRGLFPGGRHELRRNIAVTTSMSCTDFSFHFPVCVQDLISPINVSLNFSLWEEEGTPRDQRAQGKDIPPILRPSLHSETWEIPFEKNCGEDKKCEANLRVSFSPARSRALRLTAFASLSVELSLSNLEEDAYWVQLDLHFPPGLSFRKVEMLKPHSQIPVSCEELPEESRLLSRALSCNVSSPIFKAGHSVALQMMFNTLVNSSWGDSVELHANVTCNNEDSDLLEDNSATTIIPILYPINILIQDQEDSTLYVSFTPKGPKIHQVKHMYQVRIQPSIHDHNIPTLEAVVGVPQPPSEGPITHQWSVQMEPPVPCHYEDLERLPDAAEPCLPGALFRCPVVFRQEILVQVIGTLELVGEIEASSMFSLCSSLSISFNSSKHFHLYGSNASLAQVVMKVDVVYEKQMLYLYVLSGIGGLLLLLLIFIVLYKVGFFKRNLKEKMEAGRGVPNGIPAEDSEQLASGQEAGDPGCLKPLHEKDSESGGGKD

ICAM-1, sequence (P05362 28-532): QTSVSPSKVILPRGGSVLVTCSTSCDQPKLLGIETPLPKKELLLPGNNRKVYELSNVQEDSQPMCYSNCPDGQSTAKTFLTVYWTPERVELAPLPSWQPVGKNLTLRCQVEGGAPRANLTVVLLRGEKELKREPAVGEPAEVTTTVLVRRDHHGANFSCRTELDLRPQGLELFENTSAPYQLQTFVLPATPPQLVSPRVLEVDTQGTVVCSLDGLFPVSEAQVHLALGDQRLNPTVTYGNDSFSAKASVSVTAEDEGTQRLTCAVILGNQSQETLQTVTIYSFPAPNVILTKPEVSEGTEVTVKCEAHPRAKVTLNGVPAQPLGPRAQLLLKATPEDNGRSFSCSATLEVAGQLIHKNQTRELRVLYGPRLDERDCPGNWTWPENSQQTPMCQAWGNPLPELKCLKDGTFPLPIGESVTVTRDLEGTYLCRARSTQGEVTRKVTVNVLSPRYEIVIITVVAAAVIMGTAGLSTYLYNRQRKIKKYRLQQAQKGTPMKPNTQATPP

In the case of “ICAM-1 (from UniProt P05362 28-532) (ligand)”, the cytotoxicity of NK92-CD16 cells against NSCLC cells (51chromium-release assay) with the ICAM1-CD11a interaction blocked turned out to be 10%.

The values are drawn from PMC5123381.
